Assay results published in the supplement of paper PMC9170038.

Test system: K4 kissing-loop RNA reporter
Assay: apparent KD of K4 kissing-loop reporter; higher = weaker reporter binding
Details: Eterna round: R107
Description: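 RNA-MaP round R107: designed RNA switches with theophylline, tryptophan, arginine or FMN aptamers are transcribed on-chip within common flanks. They are titrated with a labelled K4 kissing-loop RNA reporter in RNA-MaP buffer (100 mM Tris pH 7.5, 80 mM KCl, 4 mM MgCl2), without ligand or with the indicated ligand. Median apparent KD per design.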

[1] = input ligand: theophylline 20 uM
[2] = input ligand: tryptophan 2.4 mM
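Also: bound reporter read as fluorescence of individual clusters on recovered sequencing chips by microscopy, with normalized cluster intensities fitted with a binding model.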

Sequence	apparent KD of K4 kissing-loop reporter (input ligand: FMN 200 uM) [nM]	apparent KD of K4 kissing-loop reporter (input ligand: arginine 13.2 mM) [nM]	apparent KD of K4 kissing-loop reporter (input ligand: none) [nM]	apparent KD of K4 kissing-loop reporter [1] [nM]	apparent KD of K4 kissing-loop reporter [2] [nM]
CACCAUGAAUUCUCUAGGAGUGAUGUUUUUCGAGGACCGGUACGGCCGCCACUCGGACGAGGACCGUGGGAGCGGCGAACCGACU [ddfgmullin]	172	74.7	208	334	150
CAGGCGACUAUCGAUACCAGAUGAUAUCGACUACUUGAGUGAUGUUCGAUUAAAGGCAUUAUCCCUUGGCAGCGACUGGACACAU [theeternabot_sameState_KL_Theo_B_24]	706	505	667	659	414
CAGGUGCUGAUGCGGUGGCCGGUGGUCGUGCGAGGACCGGUACGGCCGCCACUCGCAUGAGUGAUGUUCAUGUGUCGUCGUCGUC [whbob_EX_Tryp_A_t2]	229	136	188	192	223
CAUACGCAUGGAGGAUAUGAGAUUACUCGUAUCAUUUAAUAUUCUCAGUGAUGUUGAGAUUUGGGCUCAGAAGGCCAUGUGUAUG [Ex FMN B 16]	393	261	290	324	288
CAUACGCAUGGAGGAUAUGAGAUUUCUCAUGUCAUUUAAUAUUCUCAGUGAUGUUGAGAAUUUGGCUCAGAAGGCCAUGUGUAUG [Ex FMN B 20]	254	465	508	426	403
CAUAGGAAACUAUGUUUCUCUCUUACUGAAGGAGCGCGUGAAAACGCAGGUAGGUCGCAGAAUUUGAGAGUGAUGUUCUCAAUAA [Ex Arginine A K4 13]	114	149	151	167	116
CAUGUGUCUAUUACGAUGGAUACAUAUACUGAGGAUAUCACAUUUAUGAGAAGGCAGUAAACUGCGAGUGAUGUUCGCAGUACGU [FMN A SS t8]	159	204	214	316	248
CCAAGCGUCAGCGAUACCAGAAUUCUAGUGAUGUUAGGUUCUGUCAUUGUACUAGCAGUGUUCCCUUGGCAGCGCGUGAUAGGCA [theeternabot_exclusion_KL_Theo_B_16]	170	121	140	173	138
CCAGAAUGAUGAAGAUGAUAAAUUACUGAAGGAGCGCAUAUAGUUGCAGGUAGGUCGCGGUGAAUAAGUAUAGUGAUGUUAUACC [SSArgA.Ac]	265	167	221	217	204
CCAGUUUGAGUGAUGUUCAGGCAUUGGUACGAGGAUAUCGAGGAGUUGAGAAGGCGUACUACUCAACUAUGUAUGAAUACAUACC [FMN A Ex t2]	224	89	125	126	116
CCAUCGCUAUUCGAUACCAGUCAUUUUUUAUUUUAUUUUUUUUUUGGAGUGAUGUUCCAAGACCCUUGGCAGCGAAUAGUGAUGG [whbob_SS_Theo_B_th78]	119	130	113	139	106
CCAUUCAUUUACGAUACCAGUCUAAUAUAUUUAAUCAAAACCCUCGCCGAGUGAUGUUCGGACCCUUGGCAGCGUCUGCGACAGG [cyycmullin]	354	333	334	399	227
CCGAAGAACCAGUGAUGUUGGUUGACUAGACAGGAUAUGAGCAACAUCAGAAGGGUCUGGCUUCGGGAGUGAGUCGCGCUGACUU [Reverigeed]	260	192	319	254	314
CCGGACACCUCGGAUACCAGCCUGAGUGAUGUUCAAGCUGAACUCUCUUAAUAGGUCACCGGCCCUUGGCAGCCGCAUCCUAAGC [theeternabot_exclusion_KL_Theo_B_46]	375	269	353	310	313
CCGGAUUAUGCGGCCGCCACUGAGAAAUUGGAGGUACGCCCUCCCGAUAGUGAUGUUAUCCAUUACAGGACCGGGCAUCUCCUCU [theeternabot_sameState_KL_Trp_B_23]	779	421	893	500	325
CCUAUCUCAUACGAUACCAGUCCGAGUGAUGUUCGAACAUAAAUUAGUUUGCCAUAUAAUGACCCUUGGCAGCGUAUGGGAUAGG [Ex Theophylline B K4 12]	576	448	550	623	522
CGAAUGGAACUAUUGAACAUUUGUAUUGGCAAGGAUAUCGGGCUAUCGAGAAGGUGCUAUUUGGGCAGUGAUGUUGCCGAUUUAA [theeternabot_sameState_KL_FMN_A_10]	43.3	94.4	54.1	90.9	50
CGAGCGCGUGCGGCCGCCACUACUAUAAGUCGUCCAAGUUAGUGAUGUUGACUGAACGUCGGAAAUAGGACCGGGCAUAGUUUUA [theeternabot_sameState_KL_Trp_B_40]	351	410	420	415	300
CGAGUCGGUUCAGAUACCAGCCAAUUAGAGUCGAGUGAUGUUCGACAAUGAACGUCCAAAGGCCCUUGGCAGCUGGAUUGGGAAC [Same State Theophylline B GF 20]	157	61.1	104	112	171
CGAGUGAUGUUCGUUUUUUACUUUUUUUGACAGGAUAUGCGGAAACGCAGAAGGGUCACCUUUGAGUUAAAAGAAGUUAUUUUUU [Ex FMN A 18]	262	267	317	271	249
CGAUGUUCCUGGGAUACCAGUCGGAGUCUCAGAGCUCGGAGUGAUGUUCUGGGAUGUUUCGGCCCUUGGCAGCUCUGGGACUCCU [#2 Exclusion - Theophylline B Attempt #22 (HarryS)]	881	630	819	840	662

Sequence	apparent KD of K4 kissing-loop reporter (input ligand: FMN 200 uM) [nM]	apparent KD of K4 kissing-loop reporter (input ligand: arginine 13.2 mM) [nM]	apparent KD of K4 kissing-loop reporter (input ligand: none) [nM]	apparent KD of K4 kissing-loop reporter [1] [nM]	apparent KD of K4 kissing-loop reporter [2] [nM]
CGCAGUGAUGUUGCGAGUAGCUACAGGGAAGGAGCGUGCUAGAGCACAGGUAGGUCGCCCACUGGGUCAGUGAUGUUGGUCGGGU [Same State Arginine A GF 29]	201	166	180	171	171
CGCAGUGAUGUUGCUAUUAUUCUUGAUUAACGAGGACCGGUACGGCCGCCACUCGGUUUCUAUCUGAUCCAGCGUUUUGUUGAGU [#23 K4 Tryptophan A Exclusion]	474	562	638	620	335
CGCAGUGAUGUUGCUAUUAUUCUUGGUUAACGAGGACCGGUACGGCCGCCACUCGAUUUCUGUCUAGUCCAGUGUUUUUUUGAGU [whbob_EX_Tryp_A_t7]	363	464	439	492	263
CGCAUACCUGCGCUAGUAGUGAUGUUACAGCGAGGACCGGUACGGCCGCCACUCGUGACGGUCGCAAAACGCGUUGCAGAACACU [theeternabot_exclusion_KL_Trp_A_32]	342	183	247	253	322
CGCCGCAACUGAAGGAGCGCGCCAGUGAUGUUGGACGGCUUUGUCAAGGAAACUGCACCGGUGCAGGUAGGUCGCAGUUCGCGGU [Dilea]	278	291	297	253	252
CGCCGGAAGGCGGUCGCUCCCACUCCGGAAGGAGCGCCCGGAAGGGCAGGUAGGUCGCCGGAGUGAUGUUCCGGUGGAGGGACCG [#2 Exclusion - Arginine A Attempt #10 (Inspired by Omei)]	230	117	113	111	109
CGCGAGUCCUUUCAGUGAGUGAUGUUUACGCGAGGACCGGUACGGCCGCCACUCGAUGGUAUACCAAGACAUCAGCAGAUUGUCU [theeternabot_exclusion_KL_Trp_A_18]	304	304	321	387	342
CGCGCGCGUUUGAGAGGGUGCGCGCGAAGUGAGGAUAUUUAGGGAGAAAGAAGGCACUAUAAAAUAUAGUGAUGUUAUAUAAGGG [SSFMNA.G]	431	114	382	187	344
CGCGCGGGUUGAGAGGUUCGCGCGAAUGAUACCAGUAUAUAAGAAUACCCUUGGCAGCAUAAGAAAGAUAUAGUGAUGUUGUAUA [SSTheophA.G]	408	211	262	355	262
CGCGCGUGAGGACUUGCCCUUCAUGGAGAUACCAGCCAGUAUGCGGGCCCUUGGCAGCUCGAGUGAUGUUCGAGUUUAAGGCAAA [Riesla]	130	113	115	114	108
CGCGGCCCGCCGGAUACCAGUGACCCGCGGGAAACCGCGGGCCCAGAGUGAUGUUCGGGACACCCUUGGCAGCCGCCUGGGCGUG [#2 Same State - Theophylline B Attempt #1 (HarryS)]	567	325	620	1000	424
CGGAUGUAGUGAUGUUAUAUUAGAUGUAGACGAGGACCGGUACGGCCGCCACUCGUGACGGCUGCUAGCGCGUUGCGAGGUUUGC [ExTryptoA.Cn]	716	488	758	518	543
CGUGUAAUGUGGAGAUUUGAAAAGGCGCAUCGAGGACCGGUACGGCCGCCACUCGCUACGAGCUAGUGAUGUUGGCUCGUUCGGA [theeternabot_sameState_KL_Trp_A_23]	238	209	210	252	194
CGUUUAUAGCAGGAUACCAGUACCCAUUAAGUACGUUAAUAGUAGAGUGAUGUUCUAAAGUACCCUUGGCAGCUUCCCGUGACCC [ExTheophylB.X]	103	164	124	176	94.1
CGUUUAUAGCAGGAUACCAGUACCCAUUAUGUACGUUAAUAGUAGAGUGAUGUUCUAAAGUACCCUUGGCAGCUUCCCGUGACCC [ExTheophylB.Y]	119	183	140	176	94.7
CUAAGGGAAGCAGGAUAUCGGUAUUAGUGUGUUAAAUAAACACUCGGGUAGUGAUGUUGCCCGUGGCGAGAAGGGCUACCAUUGG [Laace]	33.6	44.8	48.7	41.4	47.3
CUAUAAGUGCCGAGUGAUGUUCGGCCAAUACGAGGACCGGUACGGCCGCCACUCGGUCAGUCGGUGCCCACCGGGCAUGGCUGAC [Ortima]	186	237	205	213	113
CUAUAGACCCUUCGGAUAGUGAUGUUGUCACGAGGACCGGUACGGCCGCCACUCGCUGCCACCAUACCGCUUCACGGAACGAGCA [theeternabot_exclusion_KL_Trp_A_7]	483	429	503	599	169
CUAUGAGUGAUGUUCGUAGGUUGGGCUUGGCAGGAUAUGGGAUCUUCCAGAAGGGCCGAUUCCGGCGAGUGAUGUUCGUUGGUCU [Exclusion FMN A GF30]	41.7	42.1	50.1	43.2	43.9
CUAUGGAAACAUAGUAGUCGGGAAACCGAUACCAGUAUGGAAACAUACCCUUGGCAGCGGAAUGAUUAAACGGAGUGAUGUUCCG [Theophylline A K4 18]	279	276	292	223	250
CUAUUUCGCGUGGAUACCAGCGGUCGUAAAAUGUCAGUGAUGUUGAAGAGGAAAAGAGCUCGCCCUUGGCAGCCAUUCCGCACUA [theeternabot_sameState_KL_Theo_B_34]	591	363	568	446	399
